PMC2850201 (Archives of biochemistry and biophysics, 2008)
Substitutions are numbered along the chain they refer to. Names and notes keep the numbering of the source. “Also recorded” adds a separate entry of the source. Where two headings read alike, the source gives them in different places. Peptide text beside a SMILES is read from it.

Key:
[1] = biological target: FliM peptide (Escherichia coli) (UniProt P06974); settings: cited from earlier work
[2] = biological target: CheZ peptide (Escherichia coli) (UniProt P0A9H9); assay: fluorescence; settings: cited from earlier work
Chain of CheZ peptide (Escherichia coli) (P0A9H9 whole entry): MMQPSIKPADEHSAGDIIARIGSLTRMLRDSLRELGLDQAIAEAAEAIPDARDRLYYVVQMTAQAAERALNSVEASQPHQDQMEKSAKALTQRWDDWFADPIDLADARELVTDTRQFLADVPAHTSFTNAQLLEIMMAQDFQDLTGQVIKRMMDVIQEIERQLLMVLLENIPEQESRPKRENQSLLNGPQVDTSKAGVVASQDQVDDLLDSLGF

[3] = biological target: FliM peptide (Escherichia coli) (UniProt P06974); settings: cited from earlier work; remark: listed apart in the source
[4] = biological target: T87I/Y106W Phosphono-CheY (Escherichia coli, UniProt P0AE67, D57C/T87I/Y106W); format: binding, E. coli; settings: ~2 μM protein, 100 mM HEPES, 10 mM MgCl2, 25 °C; no change in fluorescence intensity up to 500 μM peptide; uncertainty in intensity about 4 % due to noise
Chain of T87I/Y106W Phosphono-CheY (P0AE67 2-129 D57C/T87I/Y106W limits assumed): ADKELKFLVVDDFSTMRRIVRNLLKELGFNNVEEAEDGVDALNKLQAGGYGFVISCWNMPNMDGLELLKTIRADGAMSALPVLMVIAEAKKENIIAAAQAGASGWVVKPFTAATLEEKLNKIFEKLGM

T87I Phosphono-CheY = T87I Phosphono-CheY (Escherichia coli, UniProt P0AE67, D57C/T87I); format: binding, E. coli; settings: ~2 μM protein, 100 mM HEPES, 10 mM MgCl2, 25 °C; no change in fluorescence intensity up to 500 μM peptide; uncertainty in intensity about 4 % due to noise
Chain of T87I Phosphono-CheY (P0AE67 2-129 D57C/T87I limits assumed): as the sequence (P0AE67 2-129 D57C/T87I/Y106W limits assumed) above, with W105Y counted along it

Phosphono-CheY [5] = biological target: Phosphono-CheY (Escherichia coli, UniProt P0AE67, D57C); format: binding, E. coli; settings: phosphono-CheY versus CheY~P
Phosphono-CheY [6] = biological target: T1, Phosphono-CheY (Escherichia coli, UniProt P0AE67 1-129, D57C, phosphonomethyl group on Cys57 (Pcy57)); assay: other fluorescence titration
T1 sequence (looked up): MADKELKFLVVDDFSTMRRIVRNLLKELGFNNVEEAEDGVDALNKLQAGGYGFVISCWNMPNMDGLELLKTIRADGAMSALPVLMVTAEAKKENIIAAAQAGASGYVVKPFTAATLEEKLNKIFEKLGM

Phosphono-CheY [7] = biological target: T1, Phosphono-CheY; assay: ITC
Phosphono-CheY [8] = biological target: T1, Phosphono-CheY; assay: ITC; remark: listed apart in the source
CheZ = settings: cited from earlier work
CheY~P = settings: cited from earlier work
flagellar rotation = settings: cited from earlier work

Chain of FliM peptide (Escherichia coli) (P06974 whole entry): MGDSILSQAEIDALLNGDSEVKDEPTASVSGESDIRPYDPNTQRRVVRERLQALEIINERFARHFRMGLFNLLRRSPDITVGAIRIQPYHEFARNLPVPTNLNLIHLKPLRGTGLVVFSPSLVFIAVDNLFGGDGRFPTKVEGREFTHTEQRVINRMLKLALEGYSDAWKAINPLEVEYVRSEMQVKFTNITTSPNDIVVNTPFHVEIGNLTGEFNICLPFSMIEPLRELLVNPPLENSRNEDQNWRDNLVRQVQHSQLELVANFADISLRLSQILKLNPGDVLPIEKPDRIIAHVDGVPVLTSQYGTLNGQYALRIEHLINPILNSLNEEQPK

Molecule: CheY~P (from UniProt P0AE67)
- Kd [1]: 27 µM
- Kd [2]: 26 µM

Molecule: CheY (from UniProt P0AE67)
- Kd [3]: 680 µM
- Kd [2]: 440 µM

Molecule: CC[C@H](C)[C@H](NC(=O)[C@H](CCC(=O)O)NC(=O)[C@H](C)NC(=O)[C@H](CCC(N)=O)NC(=O)[C@H](CO)NC(=O)[C@H](CC(C)C)NC(=O)[C@@H](NC(=O)[C@H](CO)NC(=O)[C@H](CC(=O)O)NC(=O)CNC(=O)[C@@H](N)CCSC)[C@@H](C)CC)C(=O)N[C@@H](CC(=O)O)C(=O)N[C@@H](C)C(=O)N[C@@H](CC(C)C)C(=O)N[C@@H](CC(C)C)C(=O)N[C@@H](CC(N)=O)C(=O)O [FliM peptide] (H-MGDSILSQAEIDALLN-OH)
- Kd (fluorescence) [4]: Not detectable ^b
- Kd (fluorescence) (T87I Phosphono-CheY): Not detectable ^b
- affinity / Kd for phosphono-CheY compared with CheY~P (Phosphono-CheY [5]): CheY~P binds the same FliM peptide with slightly higher affinity; also recorded: almost identical

Molecule: MGDSILSQAEIDALLN [FliM peptide]
- Kd (Phosphono-CheY [6]): 38 ± 1 µM
- Kd (Phosphono-CheY [7]): 21 µM
- dH (Phosphono-CheY [8]): -10 kJ/mol

Molecule: AGVVASQDQVDDLLDSLGF [CheZ peptide]
- dH (Phosphono-CheY [8]): -20.1 kJ/mol

B1: CheY~P: phosphorylated form of CheY (protein, UniProt P0AE67 2-129, looked up)
Chemotaxis protein CheY: ADKELKFLVVDDFSTMRRIVRNLLKELGFNNVEEAEDGVDALNKLQAGGYGFVISDWNMPNMDGLELLKTIRADGAMSALPVLMVTAEAKKENIIAAAQAGASGYVVKPFTAATLEEKLNKIFEKLGM
modifications: phosphorylated
- in vivo half-life of CheY~P (CheZ; in vivo, autophosphatase plus CheZ): less than a second
- half-life of CheY~P (CheY~P; in the absence of CheZ): 15 to 20 s

B2: T87I CheY: E. coli CheY mutant T87I (protein, UniProt P0AE67 2-129, looked up, variant T87I)
Chemotaxis protein CheY: B1 Chemotaxis protein CheY with T86I
- sensitivity to CheZ (CheZ): completely resistant to CheZ activity
- autodephosphorylation rate (CheY~P): ~ 5 fold lower
- generation of clockwise rotation of the flagella (flagellar rotation): cannot generate clockwise rotation of the flagella

B3: T87I/Y106W CheY: E. coli CheY double mutant T87I/Y106W (protein, UniProt P0AE67 2-129, looked up, variant T87I Y106W)
Chemotaxis protein CheY: B1 Chemotaxis protein CheY with T86I, Y105W
- sensitivity to CheZ (CheZ): completely resistant to CheZ activity
- autodephosphorylation rate (CheY~P): ~ 5 fold lower
- generation of clockwise rotation of the flagella (flagellar rotation): cannot generate clockwise rotation of the flagella

B4: T87I CheY~P: phosphorylated T87I CheY (protein, UniProt P0AE67 2-129, looked up, variant T87I)
Chemotaxis protein CheY: B1 Chemotaxis protein CheY with T86I
modifications: phosphorylated
- sensitivity to CheZ (CheZ): resistant to CheZ-promoted phosphatase activity

B5: T87I/Y106W CheY~P: phosphorylated T87I/Y106W CheY (protein, UniProt P0AE67 2-129, looked up, variant T87I Y106W)
Chemotaxis protein CheY: B1 Chemotaxis protein CheY with T86I, Y105W
modifications: phosphorylated
- sensitivity to CheZ (CheZ): resistant to CheZ-promoted phosphatase activity

B6: T87C CheY~P: phosphorylated T87C CheY (protein, UniProt P0AE67 2-129, looked up, variant T87C)
Chemotaxis protein CheY: B1 Chemotaxis protein CheY with T86C
modifications: phosphorylated
- sensitivity to CheZ-promoted phosphatase activity (CheZ): the same is true of T87C CheY~P

B7: Y106W CheY: Substitution of Tyr106 in E. coli CheY with tryptophan (protein, UniProt P0AE67 2-129, looked up, variant Y106W)
Chemotaxis protein CheY: B1 Chemotaxis protein CheY with Y105W
- flagellar rotation / swimming phenotype (flagellar rotation): hyperactive mutant that generates mainly clockwise rotational bias
